Measured values: the nanobody polyreactivity screen of Harvey et al. (2022)

Experiment: yeast display, Sf9 membrane polyspecificity reagent, FACS + sequencing; frameworks hold sequencing errors
Summary of the method: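 Sorting gates, low and high (top ~1%), were placed on anti-HA fluorescence to track expression and on streptavidin fluorescence to track reagent binding. A clone's polyreactivity label is taken from the gate it came out of. The reagent was 10% biotinylated, detergent-solubilized Sf9 membrane, applied for 1 hour at 4 °C to galactose-induced yeast display cells.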

Row | Sequence | polyreactivity (PSR sort gate)
1 | QVQLVESGGGLVQAGGSLRLSCAASAGILRQNTMGWYRQAPGKERELVAAISSSGGRTYYADSVKGRFTISRDNAKNTVYLKMNSLIPDDPAVYYCAGKIVSRYRVIYDYWGQGTQVTVSS | high polyreactivity
2 | QVQLVESGGGLVQAGGSLRLSCAASGFIFYNYAMGWSRQAPGKERELVAAITGGGSTNYADSVKGRFTISRDNAKTTVYLQMNSLKPEDTAVYYCAAEEGPPWSRYDYWGQGTQVTVSS | low polyreactivity
3 | QVQLVESGGGLVQAGGSLRLSCAASGTTIGVNAMGWYRQAPGKERDLVAAISRRGASTYYADSVKGRFTISLDNAKNTVYLQMNSLKPEETAVYYCAKAQVHDYIVSMDRYGYWGQGTQVTVSS | low polyreactivity
4 | QVQLVESGGGLVQSGGSLRLSCAASGSIFDFYVMGWYRQAPGKERELVAAITWSDGSTYYADSVKGRFTISRDNAKNTVYLQMNSLKPEDTAVYYCNAGYFPLLGYPADAIGYDYWGQGTQVTVSS | low polyreactivity
5 | QVQLVESGGGLVQAGGSLRLSCAASGLIFPRYAMGWYRQAPGKERELVAAITSRAGSTYYADSVKGRFTISRDNAKNTVYLQMNSLKPEDTAVYYCAAVSDGWDGDMYYWGQVTQVTVSS | low polyreactivity
6 | QVQLVESGGGLVQAGGSLRLSCAASGSIFPDYAMGWYRQAPGKERELVAAITWRDDSTYYADSVKGRFTISRDNAKNTVYLQMNSLKPEDTAVYYCNASALDPLYAKDDYWGQGTQVTVSS | low polyreactivity
7 | QVQLVESGGGLVQAGGSLRLSCAAYGFIFRNYAMGWDRQAPGKERELVAAITWRGGSTYYADSVKGRFTISRDNAKNTVYLQMNSLKPEDTAVYYCAARGYRSREDYWGQGTQVTVSS | high polyreactivity
8 | QVQLVESGGGLVQAGGSLRLSCAASGSTFPKYAMGWYRQAPGKERELVAAISWYGGRTYYADSVKGRFTISRDNAKHTVYLQMNSLKPEDTAVYYCAASIPGTRSDGYWGQGTQVTVSS | low polyreactivity
9 | HVQLVESGGGLVPAGGSLRLSCAASGSTFIGYARGWYRQAPGKERELVAAISWSGGRTYYADSVKGRFTISRDNAKNTVYLQMNSLKPEDTAVYYCNTVPYRISVQFNYWGQGTQVTVSS | high polyreactivity
10 | QVQLVESGGGLVQAGGSLRLSCAASGSIFTPYTMGWYRQAPGKERELVAAITGSAGSTYYADSVKGRFTISRDNAKNTVYLQMNSLKPEDTAVYYCAAAVWGVYQWYYYWGQGTQVTVSS | high polyreactivity
11 | QVQLVESGGGLVQAGGSLRLSCAASGSTFVYYTMGWYRQAPGKERELVAAINNGGSTYYADSVKGRFTISRDNAKNTVYLQMNSLKPEDTAFYYCARFTSRVSKYYWGQGSQVTVSS | low polyreactivity
12 | QVQLVESGGGLVQAGGSLRLSCAASGRTFHYYAMGWYRQAPGKERELVASITYNGGDTYYADSVKGRFTISRDNAKNTVYLQMNSLKPEDTAVYYCAAEYYGHRYDYWGQGTQVTVSS | low polyreactivity
13 | QVQLVESGGGLVQAGGTLRLSCSASGRTFQVYAMGWYRQAPGKERELVAGITRAGSTYYADSVKGRFTISRDNAKNTVYLQMNSLKPEDTAVYYCAASRWHGYNYWGQGTQVTVSS | high polyreactivity
14 | QVQLVESGGGLVQAGGSLRLSCAASGPTFSQNVMGWYRQAPGKERELVAGISSGDITDYADSVKGRFTISRDNAKNTVYLQMNSPKPEDTAVYYCTYYGKSGGYRYTYYYWGQGTQVTVSS | high polyreactivity
15 | QVQLVESGGGLVQAGGSLRLSCAASGSTFITYAMGWYRQAPGKERELVAAIRFSGDTTYADSVKGRFTISRDNAKNTVNLQLNCLKPEDTAVYYCAVVLYRYDGRKYWRDYWGQGTQVTVSS | high polyreactivity
16 | QVQLVESGGGLVQAGASLRLSCAASGRTLKVYAMGWYRQAPGKERELDAAINNGGSTNYADSVKGRFTISRDNAKNTVYLQMNSLKPEDTAVYYCNAVYYARYRKYTYYYWGQGTQVTVSS | high polyreactivity
17 | QVQLVESGGGLVQAGGSLRLSCAASGITFRYYPMGWYRPAPGKQRELVAAISRTSGRTYYADSVKGRFTISRDNAKNTVYLQMNSLNPEDPAVYYCNKAWTPSLLYQSYYWGQGPQVTVSS | high polyreactivity
18 | QVQLVESGGGLVQAGGSLRLSCAASGIIFPYYTMGWYRQAPGKERELVARITNGGRTYYADSVKGRFTISRDNAKNTVYLQMNSLKPEDTGVYYCAADSRYDYEYWGQGTQVTVSS | high polyreactivity
19 | QVQLVESGGGLVQAGGSLRLSCAASGITFWEYAMGWYRQAPGKERELVAAISRSGGSTYYADSVKGRFTISRDTAKNTVYLQMNSLKPEDTAVYYCAAYTRRPIYDYWGQGTQVTVSS | high polyreactivity
20 | QFQLVESGGGLVKAGGSLRLSCAASGLTNIYNARGWYRQAPGKERELVAAISGNGGDTYSADSVKGRFTISRDNAKNTVYLQMNSLKPEDTAVYYCAADYAYTPITWDEYWGQGTQVTVSS | low polyreactivity
21 | QVQLVESGGALDQAGGSLRLTCAASGFIFGVNAKGWYRKAPGKERELVAAITARSGSTYYADSVKGRFTISRDNAKNTVYLQMNSLKPEDTAVYYWATPVYRSTYEYDYWGQGTQVTVSS | low polyreactivity
22 | QVQLVESGGGLVQAGGSLRLSCAASGGTIEYYAMGWYRQAPEKERELVAAISVSGGRTYYADSVKGRFTISRDNAKNTVYLQMNSLKPEDTAVYYCATDSRLWGQGTQVTVSS | high polyreactivity

Row | Sequence | polyreactivity (PSR sort gate)
23 | QVQLVESGGGLVHAGGSLLLSCSASRSIFDLYAMGGYRQAPGKERELVADISIADSTNYADSVKGRFTISRDNAKNTVYLKMNSLKPEDTAVYYCKDDVWWYCYEYDYWGQGTEVTVSS | low polyreactivity
24 | QVQLVESGGGLVQAGGSLRLSCAASGSIFYGFDMGWYRQAPGKERELVATISWSSGSSTYYADTVKGRFTISRDNAKNTVYLQMNSLKPEETAVYYCAVDFAIGYRYQGRVDYWGQGTQVTVSS | low polyreactivity
25 | QVQLVESGGGLVQAGGSLRLSCAASGSTLNRYAMGWYRQAPGKERELVAAISISGGRTYYADSVKGRFTISRDNAKNTVYLQMNSLKPEDTAVYYCAADQYYYRYIRTSKYDYWGQGTQVTVSS | high polyreactivity
26 | QVQLVESGGGFVQAGGSLRLSCAASGRTFPRYAMGWYRQAPGKERELVAAITRGGGTNYADSVKGRFTISRDNAKNTVYLQMNSLKPEDTAVYYCNRALLYRGYKFDYWGQGTHVTVSS | high polyreactivity
27 | QVQLVESGGGLVKAGGSLRLSCAASGSIFNRYAMGWYRPAPGKEREFGARISKRGGGTYYADSVKGRFTISRDNAKNPVYLQMNRLKPEDTAVYYCNAGVPSAMDYCGQGTQVTVSS | high polyreactivity
28 | QVQLVESGGGLVQAGGSLRLICAASGRIYYGYAMGWYRQAPGKERELVSTITWSGGSTYYADSVKGRFTISRDNAKNTVYLQMNSLKPEDTAVYYCAAYSPYIYQAYRYDYWGQGTQVTVSS | low polyreactivity
29 | QVQLVESGGGLVQAGGSLRLSCAASGSIFYYYAMGWYRQAPGKERELVAAINGGDTYYADSVKGRFTISRDNAKNTVYLQMNSLKPEDTAVYYCAAEGVTVEWDYDYWGQGTQVTVSS | low polyreactivity
30 | QVQLVESGGGLVQAGGSLRLSCAASGSIFRGNAMGWYRQAPGKERELVASISKGGGSTDYADSVKGRFIISRDNAKNTVYLQMNSLKPEDNAVYYCNKDYDRPDYYYWGQGTQVTVSS | low polyreactivity
31 | QVQLVESGGGLDQAGGSLRLSCAASGITFSTYAMGWYRQAPGKEREFVAAISASGGTTYYADSVKGRFTISRDNAKNTVYLQMNSLKPEDTAVYYCAADRFRVYLIYIWAMGYWGQGTQVTVSS | high polyreactivity
32 | KVQLVESGGGLVQAGGSLRLSCAASGFTFYGNAMGWYRQAPGKERELVATIRYRGGRTYYADSVKGRFTISRDNAKNTVYLQMNSLKPEDTAVYYCAARSVFLMWGQGTQVTVSS | high polyreactivity
33 | QVLLQESGGGLVQAGGSLRLSCAASGSIFLFYTMGWYRQAPVKEREFVAGITLGTTTYNADSVKGRFTISRDNVKNTVYLQMNSLKPEATAVYYCAVAVGHYTVFWYWGQGTQVTMSS | high polyreactivity
34 | QVQLVESGGGLVQAGGSLRLSCAASGSTFRGYAMGWYRQAPGKERDLVAAMSSNGDRTFYADSVKGRFTISRDNAKNTVYLQMNSLKPEDTAVYYCNAVYRGSWQLYGYWGLGTQVTVSS | high polyreactivity
35 | QVQLVESVGGLVQAGGSLRLSCAASGFTFARYAMGWYIQAPGKERELVAAISISGGRTYYADSVKGRFTISRDNAKNTVYLQMNSLKPEDTAVYYCNKGHVPSYDYNYWGQGTQVTVSS | high polyreactivity
36 | QVQLVESGGGLVQAGGSLRLSCAASGNIFAWYAMGWYRQAPGKERELDADISSRGGSTYYADSVKGRFTISRDNAKNTVYLQMNSLKPEDTAVYYCAAVWYWTQDYDYWGQGTQVTVSS | low polyreactivity
37 | QVQLEESGGGLVQAGGSLRLSCASSGYIFATYAMGWYRQAPGKERELVAAITSTGSTYYADSVKGRFTISRDNAKNTVYLQMNSLKPEDTAVYYCAAVSGYRARYYLYYYWGQGTQVTVSS | high polyreactivity
38 | QVQLVESGGCLVQAGGSLRLSCAASGSIFIWYAMGWYRQAPGKERELVASITYSAGRTYYADSVKGRFTISRDNAKNTVYLQMNSLKPEDTAVYYCAADSPYVYTLDSYGEGDYWGQGTQVTVSS | low polyreactivity
39 | HVQLVESGGGLVQAGGSLRLSSAASGITFYHNAMGWYRQAPGKEMELVAVSSRGGSTYYADSVKGRFTISRDNAKNTVYLQMNSLKPEDTAVYYCNARFWSYRGQVWYYYWGQGTQVTVSS | high polyreactivity
40 | QVQLVESGGGLVQAGGSLRLSCAASGLTFVYYAMGWYRQAPGKERELLAAISRSGGSTYYADSVKGRFTISRDNAKNTVYLQMNSLKPEDTAVYYCAAEATKWFGVVTMDYWGQGTQVTVSS | high polyreactivity
41 | QVQLVESGGGLVQAGVSLRLSCAASGSTFYRKTMGWYIQAPGKERELVAAISSSGGSTYYADSVNGRFTISRDNAKNTVYLQMNSLKPEDTAVYYCADTYSPFDFYYWRQGTQVTVSS | low polyreactivity
42 | QVQLVESGGGLVQAGGSLRLSCAASGSTFATYAMGWYRQAPGKERELVAAITLRGGRTYYADSVKGRFTISRDNAKNTVYLQMNSLKPEDTAVYYCAAEYYYLSFGLTWWRGFDYWGQGTQVTVSS | high polyreactivity
43 | QVQLVESGGGLVQAGGSLRLSCAASGSIFSYYAMGWYRQAPGKERELVAAISQSGGTTYYADSVKGRFTISRDNAKNTVYLQMNSLKPEDTAVYYCAARAPSSFDTQYYYWGQGTQVTVSS | low polyreactivity
